Reference: paper PMC11087270, “CryoEM structures reveal how the bacterial flagellum rotates and switches direction” (Nature Microbiology, 2024)
“And” between values parts separate entries of the source, which are not always exact repeats. Equal values may be shown once.

B1: FliF (S. enterica serovar typhimurium), subunit of the MS-ring whose C-terminus (FliFC) lies in the C-ring (natural protein)
chain: MSATASTATQPKPLEWLNRLRANPRIPLIVAGSAAVAIVVAMVLWAKTPDYRTLFSNLSDQDGGAIVAQLTQMNIPYRFANGSGAIEVPADKVHELRLRLAQQGLPKGGAVGFELLDQEKFGISQFSEQVNYQRALEGELARTIETLGPVKSARVHLAMPKPSLFVREQKSPSASVTVTLEPGRALDEGQISAVVHLVSSAVAGLPPGNVTLVDQSGHLLTQSNTSGRDLNDAQLKFANDVESRIQRRIEAILSPIVGNGNVHAQVTAQLDFANKEQTEEHYSPNGDASKATLRSRQLNISEQVGAGYPGGVPGALSNQPAPPNEAPIATPPTNQQNAQNTPQTSTSTNSNSAGPRSTQRNETSNYEVDRTIRHTKMNVGDIERLSVAVVVNYKTLADGKPLPLTADQMKQIEDLTREAMGFSDKRGDTLNVVNSPFSAVDNTGGELPFWQQQSFIDQLLAAGRWLLVLVVAWILWRKAVRPQLTRRVEEAKAAQEQAQVRQETEEAVEVRLSKDEQLQQRRANQRLGAEVMSQRIREMSDNDPRVVALVIRQWMSNDHE
notes: FliF, S. enterica serovar typhimurium, expressed from the fliF gene on plasmid pKLR3; residues 50-428 modelled in the MS-ring and 514-560 (FliFC) in the C-ring; no tag is told; also called MS-ring subunit; source: E. coli BL21-Gold, coexpressed from plasmid pKLR3; MSC-ring particles partially purified by differential membrane extraction
B2: FliM (S. enterica serovar typhimurium), C-ring switch subunit (natural protein, UniProt P26418 1-334, looked up)
chain: MGDSILSQAEIDALLNGDSDTKDEPTPGIASDSDIRPYDPNTQRRVVRERLQALEIINERFARQFRMGLFNLLRRSPDITVGAIRIQPYHEFARNLPVPTNLNLIHLKPLRGTGLVVFSPSLVFIAVDNLFGGDGRFPTKVEGREFTHTEQRVINRMLKLALEGYSDAWKAINPLEVEYVRSEMQVKFTNITTSPNDIVVNTPFHVEIGNLTGEFNICLPFSMIEPLRELLVNPPLENSRHEDQNWRDNLVRQVQHSELELVANFADIPLRLSQILKLKPGDVLPIEKPDRIIAHVDGVPVLTSQYGTVNGQYALRVEHLINPILNSLNEEQPK
notes: FliM, S. enterica serovar typhimurium, expressed from the fliM gene on plasmid pKLR3; FliML1 31-50, FliMmid 51-230, FliML2 231-256 and FliMC 257-330 described in the C-ring; no tag is told; also called FliML1; FliMmid; source: E. coli BL21-Gold, coexpressed from plasmid pKLR3; MSC-ring particles partially purified by differential membrane extraction

How the values were obtained:
[1] = molecular target: the molecule itself; experiment: cryo-EM structure; wild-type MSC-ring particles (CCW pose); MS-ring or C-ring removed by particle subtraction; C-ring 34-mer at 4.0 Å (33-, 35-, 36-mer classes too), MS-ring 33-mer at 3.4 Å
[2] = molecular target: the molecule itself; experiment: cryo-EM structure; MSC-ring particles with FliG ΔPAA (CW pose); C34 symmetry applied, symmetry expansion and local refinement of three staves; 4.6 Å
[3] = molecular target: B2; experiment: cryo-EM structure; wild-type MSC-ring particles (CCW pose); MS-ring or C-ring removed by particle subtraction; C-ring 34-mer at 4.0 Å (33-, 35-, 36-mer classes too), MS-ring 33-mer at 3.4 Å; conditions: both partners purified
[4] = molecular target: B1; experiment: as above; conditions: both partners purified
[5] = molecular target: B1; experiment: cryo-EM structure; MSC-ring particles with FliG ΔPAA (CW pose); C34 symmetry applied, symmetry expansion and local refinement of three staves; 4.6 Å; conditions: both partners purified

## B1
[1]
  stoichiometry N: 33

## B2
[1]
  stoichiometry N: 34

B3: FliN (S. enterica serovar typhimurium), C-ring switch subunit (natural protein, UniProt P26419 1-137, looked up)
chain: MSDMNNPSDENTGALDDLWADALNEQKATTTKSAADAVFQQLGGGDVSGAMQDIDLIMDIPVKLTVELGRTRMTIKELLRLTQGSVVALDGLAGEPLDILINGYLIAQGEVVVVADKYGVRITDIITPSERMRRLSR
notes: FliN, S. enterica serovar typhimurium, expressed from the fliN gene on plasmid pKLR3; residues 45/59/63-137 of the three non-equivalent copies modelled in the C-ring; no tag is told; also called FliNC; FliN1; source: E. coli BL21-Gold, coexpressed from plasmid pKLR3; MSC-ring particles partially purified by differential membrane extraction
[2]
  binding result: binds
[3]
  stoichiometry N: 3 FliN per FliM

B4: FliG (S. enterica serovar typhimurium), wild type, C-ring switch subunit (natural protein, UniProt P0A1J9 1-331, looked up)
chain: MSNLSGTDKSVILLMTIGEDRAAEVFKHLSTREVQALSTAMANVRQISNKQLTDVLSEFEQEAEQFAALNINANEYLRSVLVKALGEERASSLLEDILETRDTTSGIETLNFMEPQSAADLIRDEHPQIIATILVHLKRSQAADILALFDERLRHDVMLRIATFGGVQPAALAELTEVLNGLLDGQNLKRSKMGGVRTAAEIINLMKTQQEEAVITAVREFDGELAQKIIDEMFLFENLVDVDDRSIQRLLQEVDSESLLIALKGAEPPLREKFLRNMSQRAADILRDDLANRGPVRLSQVENEQKAILLIVRRLAETGEMVIGSGEDTYV
notes: FliG, S. enterica serovar typhimurium, expressed from the fliG gene on plasmid pKLR3; residues 1-331 modelled in the C-ring; no tag is told; also called FliGD1; FliGD2; source: E. coli BL21-Gold, coexpressed from plasmid pKLR3; MSC-ring particles partially purified by differential membrane extraction
[4]
  binding result: binds
[1]
  stoichiometry N: 34 and 33 and 35 and 36

B5: FliG ΔPAA (S. enterica serovar typhimurium), extreme CW-biased mutant (natural protein)
chain: MSNLSGTDKSVILLMTIGEDRAAEVFKHLSTREVQALSTAMANVRQISNKQLTDVLSEFEQEAEQFAALNINANEYLRSVLVKALGEERASSLLEDILETRDTTSGIETLNFMEPQSAADLIRDEHPQIIATILVHLKRSQAADILALFDERLRHDVMLRIATFGGVQLAELTEVLNGLLDGQNLKRSKMGGVRTAAEIINLMKTQQEEAVITAVREFDGELAQKIIDEMFLFENLVDVDDRSIQRLLQEVDSESLLIALKGAEPPLREKFLRNMSQRAADILRDDLANRGPVRLSQVENEQKAILLIVRRLAETGEMVIGSGEDTYV
notes: FliG, S. enterica serovar typhimurium, with the Pro-Ala-Ala (PAA) motif FliG 169-171 deleted; also called switch_(ΔPAA); CW-locked; source: switch particles containing the FliG ΔPAA mutation; expression and purification as told for the FliFGMN subunits (E. coli BL21-Gold, differential membrane extraction)
[5]
  binding result: binds
[2]
  binding result: binds
